Data: the DeepSol protein solubility set

Test: soluble on expression in E. coli; label from the status in PepcDB or PDB records

Soluble on expression in E. coli, not soluble:
MKSQFNQKLEDKFQRNAEQVVSLVKERMQLYENALWSSVAYIDADETDITHTKWLAYSKSLKIDLTYPGINGIGIIYNIQADQLDDYIEKQRVLRPNYAIHPSHNESEYWPITYVEPAAPNKKAIGLDMAFETNRYSSIKKARDTGVAQLTGPITLVQDAKKTPGFLFYTPFYKNGTKPESTEARRDAIDGVTYAPFIMKNLMQGTLAEKNRHVSIQIRDAGDLLFDDHDDESVLDADANPLFTKEQDISLYGRTWSFTIQSNLDFRDESAANQLEHHHHHH, MKSVMSNPTFRQDSIRMFRGRKPPQKGKPAMEIKSERSDSQHTLTITVPLGKASRNDQPPSNLTEEAAKKVAGTGRNDGKKVQFAEKLVNKTKSPSTGPSTSKKLQKSQKTQKSSKKSQKKSKKSKKSSKSK, MKTIWTGAIGFGLVNIPVKLFSATHESRLDLDMLDKKDHSNIKFQRVNAKTGKEVAWDNIVKGYKIEDDYVILDEKDFEKANAKKTKTIEILQFVQEDEIDSVYFETPYYIQPDKSGTRAYALLREALIKSKKVAVANYVLRNKEALAILKPVGNVIVLNKIRFQEEILDADALDLPAKSAIKEGEMKMALSLIDQLTETFDISKYKDTYTSELLKLIKAKAKGTVVKTKSAASKPTATKDLMAQLKASLQPTKRAAAR, MKTLNRRDFPGAQYPERIIQFGEGNFLRAFVDWQIDLLNEHTDLNSGVVVVRPIETSFPPSLSTQDGLYTTIIRGLNEKGEAVSDARLIRSVNREISVYSEYDEFLKLAHNPEMRFVFSNTTEAGISYHAGDKFDDAPAVSYPAKLTRLLFERFSHFNGALDKGWIIIPCELIDYNGDALRELVLRYAQEWALPEAFIQWLDQANSFCSTLVDRIVTGYPRDEVAKLEEELGYHDGFLDTAEHFYLFVIQGPKSLATELRLDKYPLNVLIVDDIKPYKERKVAILNGAHTALVPVAFQAGLDTVGEAMNDAEICAFVEKAIYEEIIPVLDLPRDELESFASAVTGRFRNPYIKHQLLSIALNGMTKFRTRILPQLLAGQKANGTLPARLTFALAALIAFYRGERNGETYPVQDDAHWLERYQQLWSQHRDRVIGTQELVAIVLAEKDHWEQDLTQVPGLVEQVANDLDAILEKGMREAVRPLC, MKTSSASKSHYTGQFPQGDLQPKTPIPVGRNSEIPKDAALSAQLKGLRPLDRKPSKMPTSSSDLQAVNKMIAENRSNDVGKGQFLLSTQSLGSAERVDSQNYHSRNESGKAPLFFSEFATEKPSLQSVKSLSQGKQDYYAVRHVGKRGRDLFTDEPIEGENSKLGRLKTSPLLSTQSQGTRAIRAFAATATIDKSRGEYVARLHRHVVEALGDEGGVVHLLRPTRDHYAEDSTLNFFTFCEQTELASSLNSLEAISAKKEDRKPIVFTDHKSLVGLSRTSRTEASPIGRLVQQPYFVTSDLKRGDKVVITDDHIQAGGSMLAMEAAAKEAGVDVLALATLSAHPFSPQLTMSSEVSAFLDETLAAWDPQGKVTERLAAIGMPREKLTNSEAMILIAYAIDPASDSAILRFESIQNNLFKRAHLHNVGIDPDAPDTLEQMQKLSSMQEMAGTDSARHFVDDAKVLEGEHDSLIPILKMKPASP, MKTTEFTMPEITISYKDNVKASERVKILSSETSYTYLKPFYAECMEHHEESYVMFLNRANKALGISLISKGGMAETVMDVKIILQTALKVHASGIVLSHNHPSGNLRPSEPDKKITTKINEACKVLDLHLLDHIILTEESYYSFADEGLL, MKTTTYNTDWAAEKTKIRSFFDEYYVDNEDGSGKAFPYRDQVFEIARRDKQAIVVNVDHIKESDIPDALELSEAITSNTKRYEVLFKDTISDMIQDYLGDKQAPVIDALDAYMFQRLHMDRNEGAANEEVSLQDKRKKYPPQLLQRFEVYFTTDDAAHETCVRNIKATEIGHLVSMKGVVIRATEVKPCVEVMTYTCDTCAAEVYQPVKGMQFTPPVNCPNKECVEAKANGRLHMQLRGSKFVKFQELKIQELSEQVPVGSIPRTMTVHVYGEMTRKCNTGNVVHVSGVFLPIMQSGFRPTGGLVADTYLEAHYINNLDDNPTFNGVQSAELEVLRRKGDNYETLAASIAPEIFGHVDVKKCLLMALVGGNDNSSNGMKIRGCINVLMMGDPGVAKSQLLGYVNRLAPRSQYTTGRGSSGVGLTAAVMKDPVTGEMSLEGGALVLADGGICCIDEFDKMMDHDRTAIHEVMEQQTISIAKAGIMTTLNARTAIIAAANPAYGRYNPNRSIEQNVDLPAALLSRFDLILLMQDKADRENDKILAEHITYVHQHGCHPNREKKDLISLETLREYISLCKTYTPTVDPALRERIVEAYVEMRRDARYSSDPTFVSPRMILGIVRMATARAKLRLSTIVDESDVEEALRLMQFAKDSLRPEQNKIEKRMAPVDAAFAVLRELYHADNAPIAISNAIQRCARKGISEVALKKCLDQYTANGLLVMDRQNIVFAMN, MKVAIIAANGGLFDAYKVINIGTAGAAADAEVGVFFTGEGLNLIHKEAHKQWPIPEGKEHFQQGFQKANVPSIAELLQMAQEMGVKLIACQMTMDVMGLDKDQFVDGIEVAGAATFLQFAKDADITLAF, MKVAILGASGWIGSHLAAEAKMRGHEVVAVVRDPAKVTLKGVAVQQLDILNPESSLKSVLEGVDAVIASIGGRAAGNHEMVAKTAQRLLNELPQAGVARLLWVGGAGSLEVAPGVKLVTVPGFPEEYKGEALAQGEALEVFRASNSDVNWTFVSPAAEIFPGDKQGQYRVGGDQLLTDSEGNSRISVADYAVALIDELEYAEHPRQRIGVAYLEHHHHHH, MKVAILGYGTVGSAVVKFLLENDKLIRARCGQSITPVIALARSPKKNALIPITHSVAEILNADVDVFVELMGGVDEAFKIVSEILKKKKAVVTANKAMLAYHRYELENLAKNLAFGYEASVAGGIPIIKVLKEGLSANNILAIKGILNGTSNYILSSMSQKNMSFKQALQIAQNLGYAEADPTFDIEGQDAAHKLLVLSSIAYNLKAKPEDILIEGISEIAPEDMYFANEFEFTIKLLGIAKVRENKVELRVHPTMIDKEKMLAKVDGVMNAISINGDLLGESLYYGAGAGGEATASAVISDLMDIARDQVKAPMLGFVNTLEYKLLSKDEIYTKYYLRVKVEDKIGILSKITQLMSENNISIDSFLQKPKKNDENYSTLFFTTHLTYEKSIQNLLEILRKQDFIKTKPFMMRIE, MKVIETNFTDAKLLEPRLFGDDRGFFTESYNKKVLETLGVTHSFVQDNVSYSAEAGTIRGLHFQKNPKAQTKLIQVMQGAIYDVIVDLRKDSPTFKQWRGYILSADNHRQLLVPKGFAHGFCTLVPHTIVMYKVDEYYSADHDSGVLWNDKELAIPWPVTSPILSDKDRILPLLQECEDSF, MKVLAFDTSSKALSLAILEDKQVLAETTINIKKNHSITLMPAIDFLMASLDWTPKDLDRIVVAEGPGSYTGLRIAVATAKTLAHTLNIELVGMSSLLALVPHQQEGLFVPLMDARRNNVYAGFYENAKPVMAEAHLSFEEVLEKVKGTSQVTFVGEVGPFVEQIQKHLPRTDYKETLPNAANLALLAWDKEADSLHDFVPNYLKRVEAEENWLKNHTESGESYIKRL, MKVLFVYAGMHPAHEPFVEAVKADVYPAYHKDVNGFVKFVEGLKMAREYPDYDVYILEGGMPMFPMYLRKKLFRKNGFVVGLLADETFINLVERQPHYSTAETLIHRISAKVLDAAIAVSPFVKEYAEKIIDVPIEVVRPAIPKDSYEKLGKVKPNLESNVIVSVGQPRFSIGMDVLVEQFRIAKKQIPDLELWIVGKGHPKEYERVEGVKVLGYVEDLSEVFEEASLFVHAGRCSAYPVATLEAMRAGLPVVVSTMTGTKEIVERVEEQVKREFGLNYDGNKFIQPLNRIFEGIVEYFKLDSEVRRIMSELYKKESEEFEPGKRGREFKEKFKKLLANFNNKEVP

Soluble on expression in E. coli, soluble:
MKSQLRKKTLEALSALSNEDILQKTERMYKYLFSLPEWQNAGTIAVTISRGLEIPTRPVIEQAWEEGKQVCIPKCHPDTKKMQFRTYQTDDQLETVYAGLLEPVIEKTKEVNPSQIDLMIVPGVCFDVNGFRVGFGGGYYDRYLSEYEGKTVSLLLECQLFAHVPRLPHDIPVHKLITEDRIISCFSLEHHHHHH, MKSRYLLFFLPLIVAKYTSAATMQPFHSPEESVNSQFYLPPPPGNDDPAFRYDKEAYFKGYAIKGSPRWKQAAEDADISVENIARIFSPVVGAKISPKDTPETWNMLQNLLKVGGYYATASAKKYYMRTRPFVLFNHSTCRPEDENTLRKDGSYPSGHTAYSTLLALVLSQARPERAQELARRGWEFGQSRVICGAHWQSDVDAGRYVGAVEFARLQTIPAFQKSLAKVREELNDKNNLLSKEERPELNY, MKTIHVSVVTPDGPVYEDDVEMVSVKAKSGELGILPGHIPLVAPLEISAARLKKGGKTQYIAVSGGFLEVRPDKVTILAQAAERAEDIDVLRAKAAKERAERRLQSQQDDIDFKRAELALKRAMNRLSVAEMK, MKTITETLNLAPKGKNFLTADWPAPANVKTLITTRNGGVSQGAYQSLNLGTHVGDNPEAVRRNREIVQQQVGLPVAYLNQIHSTVVVNAAEALGGTPDADASVDDTGKVACAVMTADCLPVLFCDRAGTAVAAAHAGWRGLAGGVLQNTIAAMKVPPVEMMAYLGPAISADAFEVGQDVFDAFCTPMPEAATAFEGIGSGKFLADLYALARLILKREGVGGVYGGTHCTVLERDTFFSYRRDGATGRMASLIWLDGNAV, MKTLIEIKQTPDGIIKADKVFNKVKDKISLPNRILYLGCGSSHFLSKLLAMVTNMHGGLGIALPCSEFLYSKETYPIGEVELAVGISRSGETTEILLALEKINVKKLGITTRESSLTRMCDYSLVVPAIEESVVMTHSFTSFYFAYLQLLRYSYGLPPLNAGEISKATEKSLEYERYIREIVESFDFQNIIFLGSGLLYPVALEASLKMKEMSIFWSEAYPTFEVRHGFKAIADEKTLVVLMVEEPFEWHEKLVKEFKNQGAKVLVISNSPQDLGQDYSIELPRLSKDANPIPYLPIVQLLSYYKAVSRGLNPDNPRFLDKVVRW, MKTLSPAVITLLWRQDAAEFYFSRLSHLPWAMLLHSGYADHPYSRFDIVVAEPICTLTTFGKETVVSESEKRTTTTDDPLQVLQQVLDRADIRPTHNEDLPFQGGALGLFGYDLGRRFESLPEIAEQDIVLPDMAVGIYDWALIVDHQRHTVSLLSHNDVNARRAWLESQQFSPQEDFTLTSDWQSNMTREQYGEKFRQVQEYLHSGDCYQVNLAQRFHATYSGDEWQAFLQLNQANRAPFSAFLRLEQGAILSLSPERFILCDNSEIQTRPIKGTLPRLPDPQEDSKQAVKLANSAKDRAENLMIVDLMRNDIGRVAVAGSVKVPELFVVEPFPAVHHLVSTITAQLPEQLHASDLLRAAFPGGSITGAPKVRAMEIIDELEPQRRNAWCGSIGYLSFCGNMDTSITIRTLTAINGQIFCSAGGGIVADSQEEAEYQETFDKVNRILKQLEK, MKTSPRSNRLHIALFGKRNSGKSSLINALTNQNAALVSDIAGTTTDPVYQPMEIHGIGPCVFIDTAGFDDEGELGSLRIERTLQAADKADIALMVCCDTELSEEQRWIELLKERNIPYLLVLNKADLLEKPDEVADKLEQQTGQHPLIVSAKEKTGIDSIRQSILHRLPELNEQPDIVGDLANEGDVVLLVMPQDIQAPKGRLILPQVQTLRELLDKKCITLSCTTDQLDNALKALSVPPSLIITDSQVFRTVYEKKPPQSRLTSFSVLFARYKGDIDYYTEGAYIIDQLTENSRVLIAEACTHAPLSEDIGRVKLPRMLRKRIGEKLHIDIVSGNDFPKDLNCYDLIIHCGACMFNRKHVLNRIVKAKAQGVPMTNYGIVIAYINGIPFH, MKVAIASDHGGVHIRNEIKELMDELQIEYIDMGCDCGSGSVDYPDYAFPVAEKVVSGEVDRGILICGTGIGMSISANKVKGIRCALAHDTFSAKATREHNDTNILAMGERVIGPGLAREIAKIWLTTEFTGGRHQTRIGKISDYEEKNL
